{"source": "paper PMC5072174", "biological_target": "fluorescein-conjugated N-terminal histone H3 peptide with trimethylation at the K9 position (UniProt P68431)", "experiment": "fluorescence polarisation", "data": [{"substance": "Mpp8 chromodomain with F59 replaced by 3,4,5-trifluorophenylalanine (from UniProt Q99549 55-116) (domain or fragment)", "values": [{"measurement": "Kd", "value": "> 100", "unit": "µM"}]}, {"substance": "Mpp8 chromodomain with F59 replaced by 3,5-difluorophenylalanine (from UniProt Q99549 55-116) (domain or fragment)", "values": [{"measurement": "Kd", "value": 12, "unit": "µM"}]}, {"substance": "Mpp8 chromodomain with F59 replaced by pentafluoro-phenylalanine (from UniProt Q99549 55-116) (domain or fragment)", "values": [{"measurement": "Kd", "value": "> 200", "unit": "µM"}]}]}
